Source: article PMC12575849

Tests used:
CHD1 WT (human) = test: EMSA; settings: 5 mM Mg2+, no ATP listed; 10 mM HEPES pH 8.0, 75 mM NaCl, 5 mM MgCl2, 10% glycerol, 1 mM DTT, 0.1 mg/ml BSA; 5 nM nucleosome; 30 min at 30 C; native PAGE
CHD1 deltaNC (human) = test: EMSA; settings: 5 mM Mg2+, no ATP listed; 10 mM HEPES pH 8.0, 75 mM NaCl, 5 mM MgCl2, 10% glycerol, 1 mM DTT, 0.1 mg/ml BSA; 5 nM nucleosome; 30 min at 30 C; native PAGE
[1] = target: unmodified nucleosome (recombinant human histone octamer on Widom 601 DNA) (human) (UniProt P04908); test: native gel or EMSA; purified CHD1 titrated against 5 nM IR dye-conjugated nucleosome in EMSA buffer (10 mM HEPES pH 8.0, 75 mM NaCl, 5 mM MgCl2, 10% glycerol, 1 mM DTT, 0.1 mg/ml BSA), 30 min at 30 °C, native PAGE; shifted fraction fitted to a dose-response curve

recombinant CHD1^WT protein, sequence (O14646 whole entry): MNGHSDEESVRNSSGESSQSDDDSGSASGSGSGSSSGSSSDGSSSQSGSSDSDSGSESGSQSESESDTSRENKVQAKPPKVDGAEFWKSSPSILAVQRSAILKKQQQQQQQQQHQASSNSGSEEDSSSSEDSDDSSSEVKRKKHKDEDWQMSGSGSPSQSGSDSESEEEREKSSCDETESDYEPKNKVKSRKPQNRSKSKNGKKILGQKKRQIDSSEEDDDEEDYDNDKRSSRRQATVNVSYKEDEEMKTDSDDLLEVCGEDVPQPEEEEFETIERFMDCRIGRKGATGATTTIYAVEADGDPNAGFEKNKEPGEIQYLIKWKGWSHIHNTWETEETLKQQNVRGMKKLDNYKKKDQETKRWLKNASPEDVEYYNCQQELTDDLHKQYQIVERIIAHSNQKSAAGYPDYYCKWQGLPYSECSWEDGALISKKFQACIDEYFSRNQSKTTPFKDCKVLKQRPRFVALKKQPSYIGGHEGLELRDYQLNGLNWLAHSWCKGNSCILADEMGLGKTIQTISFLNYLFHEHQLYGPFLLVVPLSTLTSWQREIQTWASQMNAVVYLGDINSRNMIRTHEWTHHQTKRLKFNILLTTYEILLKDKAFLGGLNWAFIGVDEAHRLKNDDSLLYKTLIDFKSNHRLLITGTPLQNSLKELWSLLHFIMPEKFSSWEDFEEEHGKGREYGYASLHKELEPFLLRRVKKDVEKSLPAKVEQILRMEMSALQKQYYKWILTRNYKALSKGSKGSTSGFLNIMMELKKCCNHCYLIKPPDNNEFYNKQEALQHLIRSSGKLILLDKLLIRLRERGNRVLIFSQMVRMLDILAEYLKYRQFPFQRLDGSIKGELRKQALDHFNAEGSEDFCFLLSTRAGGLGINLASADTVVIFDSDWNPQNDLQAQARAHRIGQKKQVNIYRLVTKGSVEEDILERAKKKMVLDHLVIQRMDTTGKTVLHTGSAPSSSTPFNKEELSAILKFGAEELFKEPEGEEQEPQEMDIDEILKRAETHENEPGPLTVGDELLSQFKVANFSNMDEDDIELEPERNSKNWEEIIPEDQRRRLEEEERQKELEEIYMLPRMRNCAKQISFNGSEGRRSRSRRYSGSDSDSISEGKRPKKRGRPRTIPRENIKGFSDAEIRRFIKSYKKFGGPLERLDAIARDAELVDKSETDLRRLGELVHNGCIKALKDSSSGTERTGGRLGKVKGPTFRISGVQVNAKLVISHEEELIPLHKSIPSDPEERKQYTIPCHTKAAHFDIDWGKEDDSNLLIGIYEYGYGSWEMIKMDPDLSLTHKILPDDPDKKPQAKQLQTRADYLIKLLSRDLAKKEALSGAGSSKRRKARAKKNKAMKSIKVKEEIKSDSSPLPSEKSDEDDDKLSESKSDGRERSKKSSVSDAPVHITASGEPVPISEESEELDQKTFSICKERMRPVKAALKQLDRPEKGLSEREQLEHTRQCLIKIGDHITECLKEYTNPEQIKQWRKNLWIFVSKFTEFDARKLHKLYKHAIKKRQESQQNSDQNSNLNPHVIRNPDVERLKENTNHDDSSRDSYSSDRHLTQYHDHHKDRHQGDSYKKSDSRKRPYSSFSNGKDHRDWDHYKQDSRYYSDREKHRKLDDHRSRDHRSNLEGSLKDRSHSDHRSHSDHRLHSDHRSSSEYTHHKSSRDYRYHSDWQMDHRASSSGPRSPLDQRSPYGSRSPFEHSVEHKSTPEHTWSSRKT

Row | Kd [1] | Substance | Kd (CHD1 WT (human)) | Kd (CHD1 deltaNC (human))
1 | – | Widom 601 nucleosome (unmodified) | 221 nM | 6.3 nM
2 | 221 nM | recombinant CHD1^WT protein (from UniProt O14646 1-1710) (natural protein) | – | –
